Like-named read-outs stand apart in the source and are kept apart here. One block for each binder: values may come before it.
Key:
[1] = biological target: T1, full length human CD40 (uniprot #P25942-1, SEQ ID NO: 30) on 293T cells (human, UniProt P25942 21-277); experiment: flow cytometry (FACS) on 293T-CD40 cells expressing full length human CD40; MFI
Method: (§1) 2×10⁵ cells were incubated in each well of 96 well-plates in 100 μl anti-CD40 antibodies of the disclosure or controls of various concentrations (starting at 80 nM with a 4-fold serial dilution) in FACS buffer for 40 minutes on ice. […] Following an incubation of 40 minutes at 4° C. in dark, cells were washed three times and resuspended in FACS buffer. Fluorescence was measured using a Becton Dickinson FACS Canto II-HTS equipment and plotted against antibody concentration. Data was analyzed using Graphpad Prism software and EC₅₀ values were reported.

[2] = biological target: T1, full length human CD40 (uniprot …); experiment: as above; remark: listed apart in the source
Method: as §1

[3] = biological target: T2, human CD40-Fc protein (amino acid residue 21-193 of SEQ ID NO: 30 linked to N-terminus of amino acid residue … (human, biotin-labeled in the capture ELISA and the benchmark blocking ELISA; unlabeled when coated in the ligand blocking ELISA); experiment: competitive ELISA: antibody pre-incubated with biotin-labeled human CD40-Fc (0.23 nM), mixture added to coated BM2; competitor: BM2; OD(450-630)
T2 construct: also called biotin-labeled human CD40-Fc; human CD40-Fc-biotin
Method: (§2) The abilities of the anti-CD40 antibodies of the disclosure to block Benchmark-human CD40 binding was measured in a competitive ELISA assay. Briefly, the BM2 antibody was coated on 96-well micro plates at 1 μg/mL in PBS, 100 μl per well, and incubated overnight at 4° C. The next day, plates were washed once with wash buffer, and blocked with blocking buffer (5% w/v non-fatty milk in PBST) for 2 hours at 37° C. While blocking, the anti-CD40 antibodies of the disclosure or controls were diluted with biotin labeled human CD40-Fc protein (amino acid residue 21-193 of SEQ ID NO: 30 linked to N-terminus of amino acid residue 99-330 of SEQ ID NO.:28, 0.23 nM in 2.5% v/v non-fatty milk in PBST), starting at 66.7 nM with a 5-fold serial dilution, and incubated at room temperature for 40 minutes. After plate washing 4 times, the antibody/human CD40-Fc-biotin mixtures were added to BM2 coated plates, 100 μl/well. After incubation at 37° C. for 40 minutes, plates were washed 4 times again using wash buffer. […] Finally, TMB was added and the reaction was stopped using 1M H2504, and the absorbance was read on a microplate reader using dual wavelength mode with 450 nm for TMB and 630 nm as the reference wavelength, then the OD (450-630) values were plotted against antibody concentration. Data was analyzed using Graphpad Prism software and IC₅₀ values were reported.

[4] = biological target: T2, human CD40-Fc protein (amino acid …); experiment: competitive ELISA: antibody added to coated human CD40-Fc, then biotin-labeled human CD40L-his (95 ng/mL); blocked ligand: CD40L-his; OD(450-630)
Method: (§3) The abilities of anti-CD40 antibodies to block CD40-CD40L binding were measured in a competitive ELISA assay. Briefly, 100 μl human CD40-Fc protein (amino acid residue 21-193 of SEQ ID NO: 30 linked to N-terminus of amino acid residue 99-330 of SEQ ID NO.:28) was coated on 96-well micro plates at 2 μg/mL in coating buffer (carbonate/bicarbonate buffer) and incubated overnight at 4° C. The next day, plates were washed once with wash buffer (PBS+0.05% v/v Tween-20, PBST), and blocked with 5% w/v non-fatty milk in PBST for 2 hours at 37° C. Plates were then washed 4 times using wash buffer.
Serially diluted anti-CD40 antibodies of the disclosure or controls (starting at 200 nM with a five-fold serial dilution) in PBST with 2.5% w/v non-fatty milk were added to the CD40-Fc bound plates, 100 μl per well, and incubated at 37° C. for 40 minutes. […] Finally, TMB was added and the reaction was stopped using 1M H2504, and the absorbance of each well was read on a microplate reader using dual wavelength mode with 450 nm for TMB and 630 nm as the reference wavelength, then the OD (450-630) values were plotted against antibody concentration. Data was analyzed using Graphpad Prism software and IC₅₀ values were reported.

[5] = biological target: T2, human CD40-Fc protein (amino acid …); experiment: as above; remark: listed apart in the source
Method: as §3
Serially diluted anti-CD40 antibodies of the disclosure or controls (starting at 200 nM with a five-fold serial dilution) in PBST with 2.5% w/v non-fatty milk were added to the CD40-Fc bound plates, 100 μl per well, and incubated at 37° C. for 40 minutes. Plates were washed 4 times again using wash buffer, and then added and incubated for 40 minutes at 37° C. with 100 μl/well 95 ng/mL biotin-labeled human CD40L-his protein (Sino biological Inc., Cat #10239-H08E). Plates were washed again using wash buffer. Thereafter, the plates were added with 100 μl/well of streptavidin conjugated HRP (1:10000 dilution in PBST buffer, Jackson Immunoresearch, Cat #016-030-084) and incubated for 40 minutes at 37° C. Plates were washed again using wash buffer. Finally, TMB was added and the reaction was stopped using 1M H2504, and the absorbance of each well was read on a microplate reader using dual wavelength mode with 450 nm for TMB and 630 nm as the reference wavelength, then the OD (450-630) values were plotted against antibody concentration. Data was analyzed using Graphpad Prism software and IC₅₀ values were reported.

[6] = biological target: T2, human CD40-Fc protein (amino acid …); experiment: capture ELISA: antibody captured on goat anti-mouse IgG F(ab')2-specific coat, detected with biotin-labeled human CD40-Fc (1.15 nM) and streptavidin-HRP; OD(450-630)
Method: (§4) Plates were washed once with wash buffer (PBS+0.05% v/v Tween-20, PBST) and then blocked with 200 μl/well blocking buffer (5% w/v non-fatty milk in PBST) for 2 hours at 37° C. Plates were washed 4 times and incubated with 100 μl/well serially diluted anti-CD40 antibodies of the disclosure, BM1, BM2 and negative control hIgG (human immunoglobulin (pH4) for intravenous injection, Hualan Biological Engineering Inc.) (5-fold serial dilution in 2.5% w/v non-fatty milk in PBST, starting at 66.7 nM) for 40 minutes at 37° C., and then washed 4 times again. […] After a final wash, plates were incubated with 100 μl/well ELISA substrate TMB (Innoreagents, Cat #TMB-S-002) at room temperature. The reaction was stopped in 3-10 minutes with 50 μl/well 1M H₂SO₄, and the absorbance of each well was read on a microplate reader using dual wavelength mode with 450 nm for TMB and 630 nm as the reference wavelength, then the OD (450-630) values were plotted against antibody concentration. Data was analyzed using Graphpad Prism software and EC₅₀ values were reported.

[7] = biological target: T2, human CD40-Fc protein (amino acid …); experiment: as above; remark: listed apart in the source
Method: as §4

[8] = biological target: T2, human CD40-Fc protein (amino acid …); experiment: competitive ELISA: antibody pre-incubated with biotin-labeled human CD40-Fc (0.23 nM), mixture added to coated BM2; competitor: BM2; OD(450-630); only partial: OD falls from about 1.13 to a plateau of about 0.92
Method: as §2

[9] = biological target: T2, human CD40-Fc protein (amino acid …); experiment: capture ELISA: antibody captured on goat anti-mouse IgG F(ab')2-specific coat, detected with biotin-labeled human CD40-Fc (1.15 nM) and streptavidin-HRP; OD(450-630); the curve reaches only OD about 0.9 at the highest concentration, no plateau
Method: as §4

[10] = biological target: T2, human CD40-Fc protein (amino acid …); experiment: competitive ELISA: antibody pre-incubated with biotin-labeled human CD40-Fc (0.23 nM), mixture added to coated BM2; competitor: BM2; OD(450-630); only partial: OD falls from about 1.13 to a plateau of about 0.77
Method: as §2

[11] = biological target: T2, human CD40-Fc protein (amino acid …); experiment: competitive ELISA: antibody pre-incubated with biotin-labeled human CD40-Fc (0.23 nM), mixture added to coated BM2; competitor: BM2 (self-competition); OD(450-630)
Method: as §2

[12] = biological target: T2, human CD40-Fc protein (amino acid …); experiment: as above; remark: listed apart in the source
Method: as §2

EC50 [1]: 0.975 nM | EC50 [2]: 2.46 nM | IC50 [3]: 0.234 nM | IC50 [4]: 6.95 nM | IC50 [5]: 7.91 nM | EC50 [6]: 0.236 nM | EC50 [7]: 0.248 nM
B1: BM1 (Dacetuzumab) (antibody, human IgG1, kappa, V domains shown)
VH: EVQLVESGGGLVQPGGSLRLSCAASGYSFTGYYIHWVRQAPGKGLEWVARVIPNAGGTSYNQKFKGRFTLSVDNSKNTAYLQMNSLRAEDTAVYYCAREGIYWWGQGTLVTVSS
VL: DIQMTQSPSSLSASVGDRVTITCRSSQSLVHSNGNTFLHWYQQKPGKAPKLLIYTVSNRFSGVPSRFSGSGSGTDFTLTISSLQPEDFATYFCSQTTHVPWTFGQGTKVEIKR
notes: Benchmark antibody, made in house; also called CD40-BM1; benchmark

EC50 [1]: 1.79 nM | IC50 [8]: 4.84 nM | EC50 [9]: 10.9 nM
B2: mouse anti-CD40 monoclonal antibody 1D1 (antibody, V domains shown)
VH: EVQLQQSGPELVKPGASVKMSCKASGYTFTDYVMHWVKQKPGQGLECIGYINPYNDGTTYNEKFKGKATLTSDKSSNAAYLELSSLTSEDSAVYYCARGFLRESWFGYWGQGTLVTVSA
VL: DVLLTQTPLSLPVSLGDQASISCRSSQNIVHSNGNTYLDWYLQKPGQSPKLLIYKVSNRFSGVPDRFSGSGSGTDFTLKISRVEAEDLGVYYCFQGSHVPPTFGGGTKLELK
notes: Hybridoma-derived mouse mAb; also called Clone 1D1

EC50 [2]: 1.95 nM | IC50 [5]: 7.83 nM | EC50 [7]: 0.0774 nM
B3: mouse anti-CD40 monoclonal antibody C1H1 (antibody, V domains shown)
VH: EVKLVESGGGLVKPGASLKLSCAASGFTFSNYGISWVRQTSDKRLEWVASISSGGDNTYYPDNVKGRFTISRENAKNTLYLQMSSLKSEDTALYYCARAGEKAMDYWGQGTSVTVSS
VL: DIVLTQSPVTLSVTPGDSVSLSCRASQTINNNLHWYQQKSHESPRLLIKYASQSISGIPSRFSGSGSGTDFTLSINSVETEDFGIYFCQQFSSWPLTFGAGTKLELK
notes: Hybridoma-derived mouse mAb purified on Protein A; also called mouse C1H1; Clone C1H1

EC50 [1]: 1.71 nM | EC50 [6]: 0.0906 nM | IC50 [10]: 0.18 nM
B4: mouse anti-CD40 monoclonal antibody 1A3 (antibody, V domains shown)
VH: EVQLQQSGPELVKTGASVKISCKASGYSFIGYYLHWVKQSLGKGLEWIGYISCHDGTIIYNQKFKGKATFTLDTSSSTAYMQFSSLTSEDSAVYFCARFLNYYGSNYAMDYWGQGTSVTVSS
VL: DIVMTQSHKFMSTSVGDRVSITCKASQDVGPAVAWYQQKPGQSPKLLIYWASTRHTGVPDRFTGSGYGTDFTLTINNVQSEDLADYFCQQYFTYPLTFGGGTKLEIK
notes: Hybridoma-derived mouse mAb; also called Clone 1A3

EC50 [1]: 2.01 nM | EC50 [2]: 3.26 nM | IC50 [4]: 9 nM | IC50 [5]: 9.7 nM | IC50 [11]: 0.804 nM | IC50 [12]: 0.678 nM | EC50 [6]: 0.637 nM | EC50 [7]: 0.28 nM
B5: BM2 (Selicrelumab) (antibody, human IgG2, kappa, V domains shown)
VH: not shown
VL: DIQMTQSPSSVSASVGDRVTITCRASQGIYSWLAWYQQKPGKAPNLLIYTASTLQSGVPSRFSGSGSGTDFTLTISSLQPEDFATYYCQQANIFPLTFGGGTKVEIKR
notes: Benchmark antibody, made in house; also called CD40-BM2; benchmark
